Measurements published in patent US20240101708A1 (Genentech, published 2024).
Changes are numbered by the printed parent chain.

T1: recombinant human ZNRF3 extracellular domain (human, UniProt Q9ULT6 56-219)
T1 construct: extracellular domain; also called huZNRF3; human ZNRF3 ECD
T1 sequence (looked up): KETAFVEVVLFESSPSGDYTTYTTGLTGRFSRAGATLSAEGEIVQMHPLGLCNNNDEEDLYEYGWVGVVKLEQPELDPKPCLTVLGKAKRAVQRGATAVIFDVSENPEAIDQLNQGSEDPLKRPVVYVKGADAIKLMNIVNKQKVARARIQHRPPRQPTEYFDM

B1: ZNRF3-131 (antibody, V domains shown)
VH: EVQVVESGGGLVQPGRSLKVSCAASGFTFSRYGMAWVRQAPTKGLEWVASISTGGENTYYRDSVKGRFTISRDNVKNTLYLQMDSLRSEDTATYYCARHGRVLNYFDYWGQGVMVTVSL
VL: DIQMTQSPASLSASLGETVSIECLTSEDIYTYLAWYQQKPGKSPHLLIFAASRLQDGVPSRFSGSGSGTQYSLKISGMQPEDEGDYFCLQGSKFPYTFGAGTKLDLK
notes: Rat clone; VH/VL only
B2: ZNRF3-279 (antibody, V domains shown)
VH: QVQLQQSGAELVKPGTSVRLSCKASGYTFTHNHMNWIKQTTGQGLEWIGIINPGSGGTNYNVRFKGKATLTVDTSSSTAFMQLSSLTPEDSAVYYCARNLITIAGPFAYWGQGTLVTVSS
VL: DTVLTQSPALTVSPGERVSISCRASEGVSSYIHWYQQKPGQQPKLLIYKASNLASGVPARFSGSGSGTDFTLTIDPVEADDTATYFCQQSWIDHTFGTGTKLELK
notes: Rat clone; VH/VL only
B3: ZNRF3-219 (antibody, V domains shown)
VH: EVQLVESGGGLVQPGRSLKVSCAASGFTFSTFAMAWVRQAPKKGLEWVATITPGGSNTYYPDSVKGRFTISRDNAKSTLYLQMDSLRSEDTANYYCAKCGYPGITSFDYWGQGVMVTVSS
VL: DIQMTQSPSFLSASVGDRVSINCKASQNIGKYLNWYQQELGEAPKRLIYNTNNLQTGIPSRFSGSGSGTDYTLTISGLQPEDFATYFCLQHNGFPLTFGSGTKLEIK
notes: Rat clone; VH/VL only
B4: ZNRF3-195 (antibody, V domains shown)
VH: EVQLVESGGGLVQPGNSLNLSCSASGFPFSTYGMHWIRQAPGKGLDWVAYISYNSGTVYADAVKGRFTISRDNAKNTLYLQLNSLKSEDTAIYYCARGYYDGYYRYWGQGVMVTVSS
VL: DIVMTQSPFSLAVSEGEMVTINCKSSQSLLSSGNQKNYLAWYQQRPGQSPKLLIYHASTRQSGVPDRFIGSGSGTDFTLTISDVQAEDLADYYCLQHYSSPTFGSGTKLEIK
notes: Rat clone; VH/VL only
B5: ZNRF3-6 (antibody, V domains shown)
VH: EVQLVESGGGLVPPGKSLKLSCSASGFPFSNYGMHWIRQAPGKGLDWVGYISSNSGTIYADAVKGRFTISRDNAKNTLYLLINSLKSEDTAMYYCARGYFDGYYRFWGQGVMVTVSS
VL: B4 VL with E17D, N22M, K24R, R45K
notes: Rat clone; VH/VL only
B6: ZNRF3-301 (antibody, V domains shown)
VH: QVQLKESGPGLVQPSQTLSLTCTVSGFSLTSYSVHWVRQHSGKSLEWMGRIWSDGDTSYNSAFTSRLSISRDTSKSQVFLKMNSLQTEDTGTYYCDRSGGSPFFDYWGQGVMVTVSS
VL: QFVLTQSNSVSTNLGSTVKLSCERSIGNIGSNYVNWYQQYEGRSPTTMIYKFDQRPDGVPDRFSGSIDRSSNSVLLTINNVQTEDEADYFCQSYSSDMYIFGGGTKLTVL
notes: Rat clone; VH/VL only
B7: ZNRF3-275 (antibody, V domains shown)
VH: QVQLKESGPGLVQPSQTLSLTCTVSGFSFNYYNVHWLRQPPGKGLEWLGVIWSGGNRDYNSALKPRLRISRDTSKTQVFLTLNSLQTEDTGIYYCTRMWGYGYNPFDHWGQGVMVTVSS
VL: DIQMTQSPSFLSASLGDNITITCHASQDIKGWLAWYQQKSGNAPELLIYKASSLQSGVPSRFSGGGSGTEYVLTISNLQPDDIATYYCQLYHSFPFTFGSGTKLETK
notes: Rat clone; VH/VL only
B8: ZNRF3-314 (antibody, V domains shown)
VH: B7 VH with T23N, L37V, R57T, T76S, T96N, H108Y
VL: B7 VL with D17N, A51T, G65S, T106I
notes: Rat clone; VH/VL only
B9: ZNRF3-117 (antibody, V domains shown)
VH: EIQLQESGPGLVKPSQSLSLTCSVTGYTITSDYDWSWIRKFPGNKMEWMGYINYSGSTNYNPSLKSRISFTRDTSKNQFFLQLNSITTDDTATYYCARYGPYYGFSDWYFDFWGPGTMVTVSS
VL: DVQMTQSPSYLAASPGESVSISCKASQSISNYLAWYQQKPGKTYRLLIYSGSTLQSGTPSRFSGSGSGTDFTLTIRSLEPEDFGLYYCQQYYEKPLTFGSGTKLEIK
notes: Rat clone; VH/VL only
B10: ZNRF3-265 (antibody, V domains shown)
VH: EVQLVESGGGLVQPGRSMKLSCVASGFSFSKYGMAWVRQAPTKALEWVAIISQDGSRIYYGGSVKGRFTLSRDNEKSTLHLHMNSLRSEDTATYYCARGSILRMITFFDYWGQGVTVTVSS
VL: DIQMTQSPASLSASLGETVSIECLASEGISNDLAWYQQKSGKSPRLLIYAASRLQDGVPSRFSGSGSDTRFSLKISGMHPEDEADYFCQQSYGYPLTFGSGTKLEIK
notes: Rat clone; VH/VL only
B11: ZNRF3-312 (antibody, V domains shown)
VH: QVQLQQSGAELVKPGSSVKMSCKASGYSFTTYYIYWINQRPGQGLEWIGRIGLGSGDTDYNEKFKGKATFTVDKFSNTAYLQLSSLTPEDTAVYYCARWDYGYRGFAYWGQGTLVTVSS
VL: DVVMTQTPVSLSVSLGGQVSISCRSSQSFVHSDGNTYLNWYLQTPGQSPQLLIYKVSNRLSGVPDRFSGSGSGTYFTLKISRVEHDDLGVYYCGQASKIPLTFGSGTKLEIK
notes: Rat clone; VH/VL only
B12: ZNRF3-128 (antibody, V domains shown)
VH: EVQLVESGGGLVQPGKSLKLSCSASGFTFSSYGMHWIRQAPGKGLDWVAYISTNSATVYADAVKGRFTISRDNAKNTLYLQLNSLKSEDTAIYYCARSGYTTYMPFTYWGQGTLVTVSS
VL: DVLMTQTPVSLPVSLGGQVSISCRSSQSLVHSDGNTYLHWYLQKPGQSPQLLIYRVSNRFSGVSDRFSGSGSGTDFTLKISRVEPDDLGIYYCLQTTHFLTWTFGGGTKLELK
notes: Rat clone; VH/VL only
B13: ZNRF3-17 (antibody, V domains shown)
VH: EVQLVESGGGLVQPGGSLKLSCAASGFTFSNYDMAWVRQAPTKGLEWVASISTGGGKTYYRDSVKGRLTISRDNAKNTQYLQMDSLRSEDTATYYCARLGPAYSGEWFAYWGQGTLVTVSS
VL: DTVLTQSPALAVSPGERVTISCGASEGVNTRMHWYQQRSGQQPKLLIYGSSNLDSGVPDRFSGSGSGTDFTLTIDPVEAKDAATYFCQQSWNVPNTFGAGTKLELK
notes: Rat clone; VH/VL only
B14: ZNRF3-55 (antibody, V domains shown)
VH: B13 VH with Q3H, K43R, T53P, D73N, K76E, M83I, A97S
VL: DTVLTQSPALTVSPGDKITISCRASEGVNTRIHWYQQKSGQQPKLLIYGASNLDSGVPDRFSGSGFGTDFTLTIDPVEASDTATYFCQQSWNVPHTFGGGTKLELK
notes: Rat clone; VH/VL only
B15: ZNRF3-305 (antibody, V domains shown)
VH: EVLLQQSGAELVRPGSSVKISCKTSGYTFTDYYLHWVKQRPEQGLVWIGRINPINGKTVCIEKFKTKATLTADKSSNTAYMELSSLTSEDTATYFCTRGGLAYWGQGTLVTVSS
VL: DIQMTQSPSSLPASLGERVTISCRASQGISNNLNWYQQKPDGTIKPLIYYTSNLQSGVPSRFSGSGSGTDYSLTIGSLEPEDFTMYYCQQDASFPPTFGAGTKLELK
notes: Rat clone; VH/VL only
B16: ZNRF3-269 (antibody, V domains shown)
VH: EIQLQESGPGLVKPSQSLSLTCSVTDDTITSGYDWSWIRKFPGNKMEWMGDISSSGHTNYNPSLQIRISITRDTSKNQFFLQLNSVTTEDSATYYCARGGFLFPFTFWGQGTLVTVSS
VL: B15 VL with G28V, I29L, S30N, I48L, G76T, E79D, T84A, M85I, A100G
notes: Rat clone; VH/VL only
B17: ZNRF3-163 (antibody, V domains shown)
VH: EVQLEESGGGLVQPGRSMKFSCAASGFTFSNYYMAWVRQAPSKGLEWVASISTGGGDVYYRDSVKGRFTISRDNAKSTLYLQMDSLRSEDTATYYCARHSGGRIRARGHYFDYWGQGVMVTVSS
VL: DIQMTQSPASLSASLGETVSIECLASEDISNDLAWYQQKSGKSPQVLIYGVSRLQDGVPSRFSGSGSGTRYSLKISGMQPEDEADYFCQQSYKYPYTFGAGTKLELK
notes: Rat clone; VH/VL only
B18: ZNRF3-90 (antibody, V domains shown)
VH: EVQLVESGGGLVQPGRSMKLSCAASGFTFSNYYMAWVRQAPRKGLEWVASITTGGTNTYYRDSVRGRFTISRDNAKSTLYLQMDSLRSEETATYYCARHSGGLIRARGHYFHYWGQGVMVTVSS
VL: B17 VL with T18I, D28G, I48V, G50A, V51A, K93T
notes: Rat clone; VH/VL only
B19: ZNRF3-172 (antibody, V domains shown)
VH: EVQLAESGGGLEQPGRSLKLSCAASGFTFSNYDMAWVRQAPTKGLEWVASIIASGGTTYYRDSVKGRFTVSRDNAKSTLYLQMDSLRSEDTATYYCARHGVGSYDWFADWGQGTLVTVSS
VL: DIVLTQSPALAVSLGQRATISCRASQSVTISGFNLMHWYQQKPGQQPKLLIYRASNLAFGIPARFSGSGSGTDFTLTINPVQADDITTYYCQQSRKSRTFGGGTKLELK
notes: Rat clone; VH/VL only
B20: ZNRF3-179 (antibody, V domains shown)
VH: B19 VH with A53T, G56D, Y95H
VL: B19 VL with F33Y
notes: Rat clone; VH/VL only
B21: ZNRF3-30 (antibody, V domains shown)
VH: B19 VH with K43R, I52L, A53T
VL: B19 VL with F33Y, K105R
notes: Rat clone; VH/VL only
B22: ZNRF3-182 (antibody, V domains shown)
VH: B19 VH with A53K, G56D, T58S
VL: B19 VL with I86F
notes: Rat clone; VH/VL only

Biological target: T1, recombinant human ZNRF3 extracellular …
Experiment: SPR Biacore 8K; antibody captured on Protein A; ZNRF3 ECD analyte; 25 C
Method: Antibodies were screened for binding to recombinant human RNF43 and ZNRF3 ECDs using a Biacore® 8 k instrument (GE Life Sciences). Briefly, antibodies diluted to 1 μg/ml in 1×HBSP buffer (Cytiva, BR100368) were captured on a Sensor Chip Protein A (GE Life Sciences) using a flow rate of 10 μl/minute and a contact time of 60 seconds. Binding of recombinant human RNF43 and ZNRF3 extracellular domain to the captured antibodies was analyzed at 25° C. using a single cycle kinetics method with a flow rate of 30 μl/minute, a contact time of 180 seconds and a dissociation time of 600 seconds. The concentration of recombinant human RNF43 and ZNRF3 extracellular domain in the single cycle kinetics were 0, 0.8, 4, 20, and 100 nM. Between cycles, the chip was regenerated using 10 mM Glycine HCl pH 1.5 injected for 30 seconds at 30 μl/minute. Data were evaluated using Biacore 8K Evaluation software (GE Life Sciences). Kinetic constants were obtained using a 1:1 binding model with the parameter RI set to zero. Cell surface ligase antibodies with sub-nanomolar affinities may provide advantages in certain instances, for example, in the degradation efficiency which is correlated with the durability of the ternary complex as shown in FIG. 5D.

| Binder | Kd [nM] |
| --- | --- |
| B1 | 2.39 |
| B2 | 1.66 |
| B3 | 1.9 |
| B4 | 0.27 |
| B5 | 0.12 |
| B6 | 0.0974 |
| B7 | 0.0565 |
| B8 | 0.104 |
| B9 | 0.2 |
| B10 | 0.0286 |
| B11 | 0.611 |
| B12 | 3.16 |
| B13 | 0.04 |
| B14 | 0.02 |
| B15 | 7.18 |
| B16 | 0.312 |
| B17 | 0.61 |
| B18 | 0.27 |
| B19 | 0.21 |
| B20 | 0.11 |
| B21 | 0.12 |
| B22 | 0.06 |
